Experimental findings from paper PMC8213806 are described below.

For assay [1], the target named is TcdB2 (R20292 strain), recombinant full-length, from Bacillus megaterium (Clostridioides difficile (R20292 strain as printed)).
Assay [2] concerns the target Repeat1-Fc (CSPG4 Repeat1, residues 410–551, fused to the N-terminus of human IgG1 Fc) (human) (UniProt Q6UVK1). The experiment in a line: BLI; Repeat1-Fc (50 nM) immobilised on Anti-hIgG-Fc biosensors, TcdB1 or TcdB2 in solution; 20 mM HEPES, 400 mM NaCl, pH 7.5, 10 mM CaCl2, 0.1% Tween-20, 0.5% BSA; 1:1 binding model.

Sequence of Repeat1-Fc (CSPG4 Repeat1, residues 410–551, fused to the N-terminus of human IgG1 Fc) (human) (Q6UVK1 410-551): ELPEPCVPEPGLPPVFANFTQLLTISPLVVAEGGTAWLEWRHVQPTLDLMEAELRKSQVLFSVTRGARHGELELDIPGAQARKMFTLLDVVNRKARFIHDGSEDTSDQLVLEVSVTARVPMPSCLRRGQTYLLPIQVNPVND
Sequence of Repeat1-Fc (CSPG4 Repeat1, residues 410–551, fused to the N-terminus of human IgG1 Fc) (Q6UVK1 410-551): as above

For “Repeat1-Fc (CSPG4 Repeat1, residues 410–551, fused to the N-terminus of human IgG1 Fc) (from UniProt Q6UVK1 410-551) (Fc fusion)”, the neutralisation in the cell-rounding assay on HeLa cells, 24 h, Repeat1-Fc at 2 µM; cells kept from rounding in assay [1] was 40%.

A word on the Kd: it is the free concentration of one partner at which half of the binding sites on the other are occupied at equilibrium, for simple one-to-one binding. As a reminder, the koff is a measure of how fast the partners let go of each other. A lower koff goes with slow dissociation. By kon is commonly meant a measure of how fast the partners come together. Lower therefore signals slow association. With “TcdB2 (R20292 strain), recombinant full-length, from Bacillus megaterium (natural protein)”, in assay [2], the Kd amounted to 5.4 nM, the koff came out at 4.63e-05 s⁻¹ and the kon stood at 8340 M⁻¹ s⁻¹.
